Data set [1] concerns Cre recombinase (bacteriophage P1). Nature of the data set: cell_activity. To be noted: positive control, S. pombe, day 7.
Data set [2] has as its target T1, phiC31 integrase (Streptomyces bacteriophage phiC31) (UniProt Q9T221).
T1 sequence: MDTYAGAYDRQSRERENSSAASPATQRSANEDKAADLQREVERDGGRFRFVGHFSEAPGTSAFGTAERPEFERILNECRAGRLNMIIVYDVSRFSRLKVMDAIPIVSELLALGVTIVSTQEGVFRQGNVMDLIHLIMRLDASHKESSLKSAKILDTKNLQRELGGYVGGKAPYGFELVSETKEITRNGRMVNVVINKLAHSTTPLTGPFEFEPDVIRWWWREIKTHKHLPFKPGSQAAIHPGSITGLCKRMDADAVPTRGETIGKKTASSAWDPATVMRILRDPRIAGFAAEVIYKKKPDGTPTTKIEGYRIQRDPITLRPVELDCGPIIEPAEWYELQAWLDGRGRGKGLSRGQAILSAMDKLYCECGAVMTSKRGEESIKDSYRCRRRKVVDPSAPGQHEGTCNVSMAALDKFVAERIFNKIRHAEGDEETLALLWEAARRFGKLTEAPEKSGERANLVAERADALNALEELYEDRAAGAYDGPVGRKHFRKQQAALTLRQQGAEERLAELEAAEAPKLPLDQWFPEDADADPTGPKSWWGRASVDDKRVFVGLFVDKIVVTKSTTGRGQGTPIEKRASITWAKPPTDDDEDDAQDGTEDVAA
Briefly: cell_activity. To be noted: attP x attB, S. pombe, day 7.

For lox, in data set [1], the activity stood at 100 % excision. The substance phiC31 attP x attB came in with an activity in data set [2] of 80 % excision.

Source of the values: patent US20110136237.
